Laboratory results from paper PMC11655901, “Mass balance, metabolic disposition, and pharmacokinetics of a single IV dose of [14C]CA102N in HT-29 xenograft athymic nude mice” (Frontiers in Pharmacology, 2024).
Values belong to the molecule of their own block, whether it stands above or below them.

Columns and labels:
[1] = In vivo metabolite profiling (HPLC-MS with radio flow-through detector) of plasma, urine, feces, liver, tumor; settings: for free Nim or H-Nim in the biological samples evaluated: after [14C]CA102N 200 mg/kg IV
Method: Samples were collected on days 0 through 10. […] The weights of all samples (except blood and plasma) were recorded and then stored at −70°C for later analysis.
Fecal and tissue homogenates were maintained at approximately −70°C for MET-ID analysis. The metabolite profiling in the biological samples from mice dosed with [14C]CA102N was performed by HPLC-tandem mass spectrometry coupled with a radio flow-through detector (RFD). The HPLC-MS/radio flow-through detector (RFD) consisted of a Shimadzu NexeraTM (Shimadzu, disseminated Japan) ultra-high pressure liquid chromatography system with two LC-30AD pumps, a SIL30AC autosampler, and a CTO-30A column oven; A Sciex TripleTOF 6600TM (Sciex, Framingham, MA) mass spectrometer; and a β-RAM Model 3 RFD. The mass spectrometer was controlled by Analyst TF 1.7TM (Sciex, Framingham, MA), and the RFD was controlled by Laura Lite 5TM (LabLogic Systems, Brandon, FL) software. The HPLC eluent was split between the RFD and mass spectrometer with a ratio of 3 to 1.
[14C]CA102N and its metabolites were separated using reverse-phase and hydrophilic interaction chromatography. Two HPLC methods were used to separate the metabolites and the parent molecule CA102N, using RFD and mass spectrometer simultaneously.
Retention times of the metabolites were determined from the radio-chromatograms. Mass spectra (MS and MS/MS) of metabolite standards (H-Nim, H-Nim Saccharide, H-Nim Disaccharide) were acquired and major fragment patterns were proposed. […] For other unknown metabolites, molecular ions were searched on LC-MS chromatograms at the same retention times as those found on an HPLC radio-chromatogram. The product/ion spectra were acquired for the corresponding molecular ions. Putative metabolite structures were proposed based on the analysis of their mass fragment patterns.

[2] = PK of the parent molecule H-Nim in mice (LCMS of serum); assay type: in vivo, female BALB/c athymic (nu+/nu+) mice; settings: 4.5 mg/kg IV
Method: Female BALB/c athymic (nu+/nu+) mice (n = 5) were used in the study. Mice were treated with a single bolus injection of H-Nim via the tail vein at 4.5 mg/kg. The blood samples were collected at 5, 10, 30, 60, and 120 min after treatment. Mice were anesthetized and decapitated to obtain the blood samples. Serum supernatant was collected and stored at −80 until analysis.
PK samples were analyzed by LCMS analysis. The retention time of H-Nim was approximately 25.4 min on the extracted ion chromatogram (XIC) and the protonated molecule of H-Nim was at m/z 279.

[3] = in vivo; cited from earlier work
[4] = mouse, in vivo
Method: Female BALB/c athymic (nu+/nu+) mice (n = 48) were generated by Taconic (Germantown, NY). Mice (18–22 g) were acclimated for at least 3 days before subcutaneous implantation of 1 × 10^7 HT-29 colorectal carcinoma (ATCC number HTB38) cells in 100 μL 50:50 matrigel: PBS. Tumors were allowed to grow to 200–500 mm^3 sizes before initiating the study. Each animal was assigned a permanent identification number, and identified with a tail mark before being placed on the study. Food and water were provided ad libitum. Animal rooms were controlled to maintain a temperature of 68°F–79°F, and 20%–70% relative humidity, with a 12 h light/12 h dark cycle. Observations were recorded for all animals pre-dose and at least once daily post-dose. Mice were randomized into 3 groups and housed (n = 3 per cage) in metabolism cages (Group 1, n = 9) or shoebox cages (Group 2, n = 29 and Group 3, n = 10). […] Urine, feces, cage residue, blood/plasma, tissue samples, and carcasses were collected from different groups for Mass Balance (MB), Metabolite Identification (MET-ID), Pharmacokinetics (PK), and Quantitative Whole-Body Autoradiography (QWBA) studies.
Samples were collected on days 0 through 10. […] Blood samples were collected via cardiac puncture (Group 2), into EDTA-containing tubes at 0 (pre-dose), 0.5, 2, 8, 24, 48, 72, 120,168, 240, and 336 h after the dose, and plasma samples were harvested on wet ice for PK analysis. […] The weights of all samples (except blood and plasma) were recorded and then stored at −70°C for later analysis.
Radioactivity in diluted formulations, plasma, and urine, was quantitated by mixing with a liquid scintillator, Ultima Gold scintillation cocktail (5 mL, PerkinElmer). Samples were analyzed by LSC for total radioactivity content.
Nominal times were used for pharmacokinetic calculations. Phoenix® WinNonlin®, (version 6.3, Pharsight Corporation, Mountain View, CA, United States) noncompartmental pharmacokinetic analysis was used to determine PK parameters [Maximal concentration (Cmax), Time of maximal concentration (Tmax), Terminal half-life (t1/2), area under the curve to infinity observed (AUCinf obs [µg equiv·h/g]), and area under the curve all observed points (AUCall [µg equiv·h/g])]. The acceptance criteria for the terminal half-life (t1/2) estimation used regression of at least three time points. […] Plasma concentrations are expressed as µg equivalents (equiv)/g (assume 1 mL = 1 g).

HT-29 xenograft = system: HT-29 xenograft; design: method as in Lin et al., 2017; settings: 200 or 400 mg/kg weekly (QW) or three times a week (TIW); ref Lin et al., 2017; cited from earlier work
[5] = Quantitative Whole-Body Autoradiography (QWBA) tissue distribution of total radioactivity; assay type: in vivo, female BALB/c athymic (nu+/nu+) HT-29 xenograft mice
Method: Food and water were provided ad libitum.
Samples were collected on days 0 through 10.
The pinna, limbs, and tail were removed from each frozen carcass (Group 3) and the remaining carcass was embedded in an aqueous suspension of approximately 1% (w/v) carboxymethylcellulose and frozen into a block. The blocks were stored at approximately −20°C before sectioning. Each blocked carcass was mounted on a microtome stage (Leica CM3600 Cryomacrocut and/or a Vibratome 9800, Leica Corp., Nussloch, Germany) and maintained at approximately −20°C. Sections were collected and allowed to dry by sublimation in the cryomicrotome at −20°C for at least 48 h. A set of sections for each mouse was mounted on a cardboard backing, covered with a thin plastic wrap, and exposed along with calibration standards of [14C]-glucose mixed with blood at 10 different concentrations to a [14C]-sensitive phosphor imaging plate (Fuji Biomedical, Stamford, CT). The imaging plates and sections were placed in light-tight exposure cassettes, for a 4-day (96 h) exposure at room temperature. The imaging plates were scanned using the GE Healthcare Typhoon FLA 9500 image acquisition system (GE/Molecular Dynamics, Sunnyvale, CA, United States). Quantification was performed by image dosimetry using MCID image analysis software (Version 7.0, Interfocus Imaging Ltd., Linton, Cambridge, United Kingdom). A standard curve was constructed from the integrated response (MDC/mm2) and the nominal concentrations of the [14C]-calibration standards. The concentrations of radioactivity were expressed as the µg equivalents of CA102N per gram sample (µg equiv/g).
The following calculations were used to determine the µg equivalents/mL, or/g and % percent of dose in the tissue: µg equivalents/mL=µCi/mL/Specific Activity DosedµCi/mL µg equivalents/g=DPM of the sample×1/MassTissueg/Specific Activity of the radiolabeled moleculeDPM/g Percent of dose in tissue=µg eq in tissue×100/Specific Activity DosedμCi/μg
Autoradioluminographic image data were calibrated using response curves that were generated using a weighted, 1st-degree, polynomial, linear equation (1/MDC/mm^2). A numerical estimate of the goodness of fit was given by the relative error, where the absolute value for the relative error of each calibration standard must have been ≤0.250 to be accepted.
The LLOQ and ULOQ were set using calibration standard concentration values of 0.0003 and 20.973 μCi/g, respectively, which were widely proven values ([Kolbe and Dietzel, 2000]) that were verified during the QWBA system validation ([Solon and Lee, 2002]).

[6] = mouse, in vivo; remark: listed apart in the source
Method: Female BALB/c athymic (nu+/nu+) mice (n = 48) were generated by Taconic (Germantown, NY). Mice (18–22 g) were acclimated for at least 3 days before subcutaneous implantation of 1 × 10^7 HT-29 colorectal carcinoma (ATCC number HTB38) cells in 100 μL 50:50 matrigel: PBS. Tumors were allowed to grow to 200–500 mm^3 sizes before initiating the study. Each animal was assigned a permanent identification number, and identified with a tail mark before being placed on the study. Food and water were provided ad libitum. Animal rooms were controlled to maintain a temperature of 68°F–79°F, and 20%–70% relative humidity, with a 12 h light/12 h dark cycle. Observations were recorded for all animals pre-dose and at least once daily post-dose. Mice were randomized into 3 groups and housed (n = 3 per cage) in metabolism cages (Group 1, n = 9) or shoebox cages (Group 2, n = 29 and Group 3, n = 10). Each mouse received a single bolus injection of CA102N via the tail vein. Urine, feces, cage residue, blood/plasma, tissue samples, and carcasses were collected from different groups for Mass Balance (MB), Metabolite Identification (MET-ID), Pharmacokinetics (PK), and Quantitative Whole-Body Autoradiography (QWBA) studies.
Samples were collected on days 0 through 10. […] The weights of all samples (except blood and plasma) were recorded and then stored at −70°C for later analysis. […]
Radioactivity in diluted formulations, plasma, and urine, was quantitated by mixing with a liquid scintillator, Ultima Gold scintillation cocktail (5 mL, PerkinElmer). Samples were analyzed by LSC for total radioactivity content. […] The resulting 14CO2 liberated during combustion was trapped in CarboSorb® and Perma-Fluor® scintillation cocktail was added automatically to the samples before total radioactivity measurement by LSC.
All LSC analyses were performed using a liquid scintillation analyzer (Perkin Elmer Model 2800TR or Model 2900TR). […] Data were corrected to the background by subtracting the dpm value measured from the analysis of blank samples (cocktail only).

metabolite in liver and tumor extracts ([1]; 240 h post-dose): dominant metabolite
excretion by component, Liver + Tumor, percent of dose ([1]; Group 1, 200 mg/kg IV): 4.40%
excretion by component, Total, percent of dose ([1]; Group 1, 200 mg/kg IV): 4.4%
Molecule: CC(=O)NC1C(O)OC(CO)C(O)C1OC1OC(C(=O)Nc2ccc(NS(C)(=O)=O)c(Oc3ccccc3)c2)C(OC2OC(CO)C(O)C(OC3OC(C(=O)O)C(O)C(O)C3O)C2NC(C)=O)C(O)C1O (stereo not drawn) [M1037]

excretion by component, Feces, percent of dose ([1]; Group 1, 200 mg/kg IV): 13.20%
excretion by component, Total, percent of dose ([1]; Group 1, 200 mg/kg IV): 13.2%
metabolite in fecal extracts ([1]; pooled 0 to 120 h): primary metabolite
Molecule: CC(=O)NC1C(O)OC(CO)C(O)C1OC1OC(C(=O)Nc2ccc(NS(C)(=O)=O)c(Oc3ccccc3)c2)C(O)C(O)C1O (stereo not drawn) [M1]

The remaining lines, values behind:

Molecule: CS(=O)(=O)Nc1ccc([N+](=O)[O-])cc1Oc1ccccc1 [Nimesulide, reference compound]
free Nim or H-Nim in the biological samples evaluated [1]: No free Nim or H-Nim are determined

Molecule: CS(=O)(=O)Nc1ccc(N)cc1Oc1ccccc1 [H-Nim]
free Nim or H-Nim in the biological samples evaluated [1]: No free Nim or H-Nim are determined
half-life [2]: < 5 min
serum concentration at any time point greater than 5 min ([2]; detection limit 0.1 μg/mL): not detectable
serum concentration ([2]; 5 min): 142 ng/mL

Molecule: N-(4-Amino-2-phenoxyphenyl) methanesulfonamide-graft-poly (β-D-(1, 3) glucuronic acid-β-D-(1, 4)-N-acetylglucosamine) conjugate [CA102N]
hepatotoxicity [3]: absence of hepatotoxicity
systemic plasma clearance (CL) [4]: 0.2 mL/min/kg
volume of distribution at steady state (Vss) [4]: 0.1 L/kg
AUC 0-inf_obs ([4]; iv, 200 mg/kg): 18332.4 μg equiv/ml*h
AUC 0-t ([4]; iv, 200 mg/kg): 18329.2 μg equiv/ml*h
AUC 0-t/0-inf_obs ([4]; iv, 200 mg/kg): 0.99
AUClast ([4]; iv, 200 mg/kg): 18,332.4 μg equiv/ml*h
AUMC 0-inf_obs ([4]; iv, 200 mg/kg): 161062.0 μg equiv/ml*h^2
C0 ([4]; iv, 200 mg/kg): 1985.6 μg equiv/ml
Cl_obs ([4]; iv, 200 mg/kg): 0.01 (mg)/(μg equiv/ml)/h
Clast_obs/Cmax ([4]; iv, 200 mg/kg): 5.5E-05
Lambda_z ([4]; iv, 200 mg/kg): 0.03 h⁻¹
MRT 0-inf_obs ([4]; iv, 200 mg/kg): 8.7 h
Vss_obs ([4]; iv, 200 mg/kg): 0.09 (mg)/(μg/mL)
Vz_obs ([4]; iv, 200 mg/kg): 0.3 (mg)/(μg equiv/ml)
mean plasma radioactivity ([4]; iv, 200 mg/kg): 1.073 µg equivalents/mL
tumor burden compared to vehicle-treated controls (HT-29 xenograft): significant reduction in tumor burden
lowest relative tissue concentrations: white adipose, brain, spinal cord, bone tissue, eye lens, mammary gland region, skeletal muscle ([5]; 200 mg/kg IV): < 60 μg equiv/g
half-life of release of CA102N and its metabolites from tumor sites ([5]; mouse, in vivo): 74.2 h
tissue-to-blood ratio, Blood (cardiac) ([5]; mouse, in vivo, iv, 200 mg/kg): 1.00
total radioactivity, adrenal Gland ([5]; mouse, in vivo, iv, 200 mg/kg): 429.979 μg equiv/g
total radioactivity, thyroid ([5]; mouse, in vivo, iv, 200 mg/kg): 469.62 μg equiv/g
cage rinses, wash, and wipe combined, percent of dose [6]: 20%
radioactivity elimination through urine, average percent of dose (abstract) [6]: 77%
total dose eliminated within the first 24 h [6]: Around 60%
